Results on three molecules are retold here after article PMC11039692, “SRY-Box transcription factor 9 triggers YAP nuclear entry via direct interaction in tumors” (Signal Transduction and Targeted Therapy, 2024).

Assay [1] deals with T1, His-tagged YAP purified from Escherichia coli (human, UniProt P46937 1-504).
T1 construct: YAP, recombinant; Labelled with RED-tris-NTA 2nd Generation dye where it was the labelled partner; also called YAP protein; source: Escherichia coli, purified
Put plainly: MST; His-tagged YAP labelled with 25 nM RED-tris-NTA 2nd Generation dye, SOX9 peptide serially diluted; 50 mM Tris-HCl pH 7.4, 150 mM NaCl, 0.05% Tween-20; room temperature; 40% LED power, medium MST power. The settings on record: both partners purified.

For assay [2], the target named is T1, His-tagged YAP purified from …. Put plainly: MST; SOX9-HMG (aa 98–181) with YAP protein; which of the two was labelled is not told; 50 mM Tris-HCl pH 7.4, 150 mM NaCl, 0.05% Tween-20; room temperature. The settings on record: both partners purified.

T1 sequence (P46937 whole entry): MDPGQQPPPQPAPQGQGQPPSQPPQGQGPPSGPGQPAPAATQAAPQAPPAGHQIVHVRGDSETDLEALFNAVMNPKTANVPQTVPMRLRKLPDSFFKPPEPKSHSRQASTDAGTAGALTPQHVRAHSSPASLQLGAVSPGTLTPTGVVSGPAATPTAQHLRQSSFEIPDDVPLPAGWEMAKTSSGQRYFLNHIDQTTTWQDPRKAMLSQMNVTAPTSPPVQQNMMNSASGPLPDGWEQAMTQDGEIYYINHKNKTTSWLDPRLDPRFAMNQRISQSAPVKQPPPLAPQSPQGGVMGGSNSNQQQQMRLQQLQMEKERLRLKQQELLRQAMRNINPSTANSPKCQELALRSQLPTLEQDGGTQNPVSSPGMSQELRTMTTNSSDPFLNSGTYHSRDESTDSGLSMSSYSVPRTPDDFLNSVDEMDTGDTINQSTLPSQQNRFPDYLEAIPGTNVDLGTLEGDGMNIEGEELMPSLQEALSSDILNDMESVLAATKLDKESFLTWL

Take AFMVWAQAARRKLADQ (peptide, UniProt P48436 111-126, looked up) [peptide S-A1 (SOX9 amino acids 111–126)]: binding in assay [1] was put at a Kd of 2200 nM.

B1: SOX9-HMG domain (aa 98–181) (domain or fragment)
chain: not shown
notes: SOX9 HMG domain, residues 98-181; The limits 98-181 are printed for the MST with YAP protein; source: Escherichia coli, purified
As for B1, in assay [2], the Kd (as a rule, the free concentration of one partner at which half of the binding sites on the other are occupied at equilibrium, for simple one-to-one binding) was 540 nM.
In assay [1], RVNGSSKNKPHVKRPMNAFMVWAQAARRKLADQ (peptide, UniProt P48436 94-126, looked up) [nNLS-containing fragment of SOX9 (aa 94–126)] had a Kd of 1100 nM.
